# Target: protein kinase C theta (human, UniProt Q04759 1-706)
# Assay: cell-based or functional assay
# Sequence of protein kinase C theta (Q04759 whole entry): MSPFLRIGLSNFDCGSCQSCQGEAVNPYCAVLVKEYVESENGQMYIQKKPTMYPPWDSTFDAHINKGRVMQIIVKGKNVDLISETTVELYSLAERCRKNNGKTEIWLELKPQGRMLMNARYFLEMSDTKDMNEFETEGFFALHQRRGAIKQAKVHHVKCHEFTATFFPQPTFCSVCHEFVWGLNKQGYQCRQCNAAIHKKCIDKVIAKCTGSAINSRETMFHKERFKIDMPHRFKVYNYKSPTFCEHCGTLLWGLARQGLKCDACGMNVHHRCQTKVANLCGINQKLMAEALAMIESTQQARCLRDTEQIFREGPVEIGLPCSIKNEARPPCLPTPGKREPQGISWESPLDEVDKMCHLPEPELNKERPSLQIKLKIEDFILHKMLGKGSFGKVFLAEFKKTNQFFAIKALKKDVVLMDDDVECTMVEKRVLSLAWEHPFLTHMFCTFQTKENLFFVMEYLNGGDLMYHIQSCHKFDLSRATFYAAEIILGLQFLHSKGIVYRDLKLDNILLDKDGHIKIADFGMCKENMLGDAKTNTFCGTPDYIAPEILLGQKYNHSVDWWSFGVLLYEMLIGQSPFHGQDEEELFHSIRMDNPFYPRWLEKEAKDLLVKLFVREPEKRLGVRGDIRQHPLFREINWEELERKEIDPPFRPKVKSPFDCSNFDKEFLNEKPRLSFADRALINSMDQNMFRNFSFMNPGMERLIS
binder,measurement,value
RQIKIWFQNRRMKWKKMDQNMFRNFSFNMP [antennapedia-PKC theta peptide],"proliferation (3H-thymidine incorporation) of Th1 and Th2 cells stimulated with CD3 and CD28, relative to no inhibitor",16 % of control levels
